{
  "source": "patent US20230287383A1",
  "about": "“PYRROLYSYL-tRNA SYNTHETASE VARIANTS AND USES THEREOF” (enGenes Biotech GmbH, priority 2020, published 2023)",
  "key": {"eGFP Y40am [1]": {"test_system": "eGFP Y40am", "assay": "eGFP Y40am amber suppression reporter: ncAA incorporation by o-pairs, fluorescence normalized to cell density", "format": "cell-based", "protocol": "The incorporation of BocK, AllocK and AzK by the MmPyIRS/MmtRNACUA^Pyl and MaPyIRS/MatRNACUA^Pyl o-pairs was compared. The ncAAs were supplemented in the medium at 5 mM. eGFP fluorescence (λex 488 nm; λem 508 nm) was assessed after 4 hours (white bars) and overnight (black bars) induction. Fluorescence units were correlated to cell density (F488;508/D600) and the average of eight technical replicates is shown; the error bars indicate the standard deviation.\nThe incorporation of AzK by the MmPyIRS/MmtRNACUA^Pyl and the MaPyIRS/MatRNACUA^Pyl wild type and mutant o-pairs was compared. The ncAA was supplemented in the medium at 5 mM. eGFP fluorescence (λex 485 nm; λem 530 nm) was assessed after overnight induction. eGFP wild type was expressed from the same plasmid carrying the MmOP. Fluorescence units were correlated to cell density (F485;530/D600) and the average of at least two technical replicates is shown; the error bars indicate the standard deviation.\nFIG. 4: The MaPyIRS M129L V168C/MatRNACUA^Pyl mutant o-pair produces more target protein than MmOP with less or the same amount of AzK. MaOP LC, MaPyIRS M129L V168C/MatRNACUA^Pyl; MmOP, PyIRS and RNACUA^Pyl from M. mazel, both o-pairs were used in BL21(DE3) cells; UNINDUCED, eGFP Y40am expression was not induced; INDUCED, expression was induced with 1 mM IPTG. Different concentrations of AzK were provided in the medium either 2 hours before induction with IPTG, or in parallel with IPTG. eGFP fluorescence (λex 485 nm; λem 530 nm) was assessed after overnight induction and was normalized to cell density (D600). The average of at least 3 replicates is shown and the error bars indicate the standard deviation.\nThe MaPyIRS M129L+V168C mutant variant was generated, which contains the same amino acid residues in the amino acid binding pocket as the MmPyIRS. […] The efficiency of the incorporation of AzK into the reporter protein eGFP Y40am was assessed by recording the fluorescence intensity normalized to the corresponding cell density and was compared to the fluorescence of wild type eGFP expressed from the same plasmid."}, "eGFP Y40am [2]": {"test_system": "eGFP Y40am", "assay": "SDS-PAGE analysis of eGFP Y40am expression in the presence of AzK", "format": "cell-based", "conditions": "overnight induction, compared to eGFP wild type band", "protocol": "FIG. 3: SDS-PAGE analysis of the expression of eGFP Y40am in the presence of AzK with the MaPyIRS M129L V168C/MatRNACUA^Pyl mutant o-pair in comparison to MmOP and MaOP corroborates the fluorescence analysis. eGFP expression was assessed after overnight induction, two expressions of eGFP Y40AzK with the mutant MaOP are shown. eGFP wild type was expressed from the same plasmid carrying the MmOP. Samples of corresponding cell density were analyzed. The calculated molecular weight of eGFP is 28 kDa. M, molecular weight marker.\nTo further validate the finding, the expression of the reporter protein eGFP by SDS-PAGE was analyzed (e.g., FIG. 3)."}},
  "data": [
    {"molecule": "MmPyIRS/MmtRNACUA^Pyl: wildtype Methanosarcina mazei pyrrolysyl-tRNA synthetase/tRNA o-pair, the benchmark (protein, UniProt Q8PWY1 1-454, looked up, with cognate tRNA Pyl, wildtype Methanosarcina mazei pyrrolysyl-tRNA synthetase/tRNA o-pair, the benchmark) Pyrrolysine--tRNA ligase: MDKKPLNTLISATGLWMSRTGTIHKIKHHEVSRSKIYIEMACGDHLVVNNSRSSRTARALRHHKYRKTCKRCRVSDEDLNKFLTKANEDQTSVKVKVVSAPTRTKKAMPKSVARAPKPLENTEAAQAQPSGSKFSPAIPVSTQESVSVPASVSTSISSISTGATASALVKGNTNPITSMSAPVQASAPALTKSQTDRLEVLLNPKDEISLNSGKPFRELESELLSRRKKDLQQIYAEERENYLGKLEREITRFFVDRGFLEIKSPILIPLEYIERMGIDNDTELSKQIFRVDKNFCLRPMLAPNLYNYLRKLDRALPDPIKIFEIGPCYRKESDGKEHLEEFTMLNFCQMGSGCTRENLESIITDFLNHLGIDFKIVGDSCMVYGDTLDVMHGDLELSSAVVGPIPLDREWGIDKPWIGAGFGLERLLKVKHDFKNIKRAARSESYYNGISTNL", "values": [
      {"measurement": "AllocK incorporation", "setting": "eGFP Y40am [1]; AllocK 5 mM in medium, eGFP fluorescence correlated to cell density", "result": "efficient incorporation"},
      {"measurement": "AzK incorporation efficiency", "setting": "eGFP Y40am [1]; AzK 5 mM in medium, eGFP fluorescence correlated to cell density (D600)", "result": "very well incorporated"},
      {"measurement": "BocK incorporation", "setting": "eGFP Y40am [1]; BocK 5 mM in medium, eGFP fluorescence correlated to cell density", "result": "efficient incorporation"},
      {"measurement": "eGFP expression band intensity in the presence of AzK", "setting": "eGFP Y40am [2]", "result": "markedly less intense"}
    ]}
  ]
}
